These are literature values, as cited in PMC3562316.

The target of the series is IGF1R (Homo sapiens) (UniProt P08069).

IGF-2 (from UniProt P01344): the Kd is 0.2 nM.
